Changes are numbered by the printed parent chain. In names and notes the source's numbering stands. Read-outs that look alike come from different tables or passages of the source.
T1: Abz-GGFLRKHGQ-EDDnp
T1 chain: GGFLRKHGQ

B1: rIDE-Y609F (protein)
chain: MNNPAIQRIEDHIVKSPEDKREYRGLELANGIKVLLISDPTTDKSSAALDVHIGSLSDPPNIPGLSHFCEHMLFLGTKKYPKENEYSQFLSEHAGSSNAFTSGEHTNYYFDVSHEHLEGALDRFAQFFLCPLFDASCKDREVNAVDSEHEKNVMNDAWRLFQLEKATGNPKHPFSKFGTGNKYTLETRPNQEGIDVREELLKFHSTYYSSNLMAICVLGRESLDDLTNLVVKLFSEVENKNVPLPEFPEHPFQEEHLKQLYKIVPIKDIRNLYVTFPIPDLQQYYKSNPGHYLGHLIGHEGPGSLLSELKSKGWVNTLVGGQKEGARGFMFFIINVDLTEEGLLHVEDIILHMFQYIQKLRAEGPQEWVFQECKDLNAVAFRFKDKERPRGYTSKIAGKLHYYPLNGVLTAEYLLEEFRPDLIDMVLDKLRPENVRVAIVSKSFEGKTDRTEQWYGTQYKQEAIPEDVIQKWQNADLNGKFKLPTKNEFIPTNFEILALEKDATPYPALIKDTAMSKLWFKQDDKFFLPKACLNFEFFSPFAYVDPLHCNMAYLYLELLKDSLNEYAFAAELAGLSYDLQNTIYGMYLSVKGYNDKQPILLKKITEKMATFEIDKKRFEIIKEAYMRSLNNFRAEQPHQHAMYYLRLLMTEVAWTKDELKEALDDVTLPRLKAFIPQLLSRLHIEALLHGNITKQAALGVMQMVEDTLIEHAHTKPLLPSQLVRYREVQLPDRGWFVYQRRNEVHNNCGIEIYYQTDMQSTSENMFLELFCQIISEPCFNTLRTKEQLGYIVFSGPRRANGIQGLRFIIQSEKPPHYLESRVEAFLITMEKAIEDMTEEAFQKHIQALAIRRLDKPKKLSAECAKYWGEIISQQYNYDRDNIEVAYLKTLSKDDIIKFYKEMLAVDAPRRHKVSVHVLAREMDSCPVVGEFPSQNDINLSEAPPLPQPEVIHNMTEFKRGLPLFPLVKPHINFMAAKL
B2: rIDE-I374S (protein)
chain: B1 chain with I333S, F568Y
B3: rIDE-V360S (protein)
chain: B1 chain with V319S, F568Y
B4: IDE^R429S: Rat IDE residues 41-1019 bearing the mutation R429S; ATP binding site mutant (protein, listed as Rattus norvegicus)
chain: MRNGLVWLLHPALPSTLHSILGARPPPVKRLCGFPKQIYSTMNNPAIQRIEDHIVKSPEDKREYRGLELANGIKVLLISDPTTDKSSAALDVHIGSLSDPPNIPGLSHFCEHMLFLGTKKYPKENEYSQFLSEHAGSSNAFTSGEHTNYYFDVSHEHLEGALDRFAQFFLCPLFDASCKDREVNAVDSEHEKNVMNDAWRLFQLEKATGNPKHPFSKFGTGNKYTLETRPNQEGIDVREELLKFHSTYYSSNLMAICVLGRESLDDLTNLVVKLFSEVENKNVPLPEFPEHPFQEEHLKQLYKIVPIKDIRNLYVTFPIPDLQQYYKSNPGHYLGHLIGHEGPGSLLSELKSKGWVNTLVGGQKEGARGFMFFIINVDLTEEGLLHVEDIILHMFQYIQKLRAEGPQEWVFQECKDLNAVAFRFKDKESPRGYTSKIAGKLHYYPLNGVLTAEYLLEEFRPDLIDMVLDKLRPENVRVAIVSKSFEGKTDRTEQWYGTQYKQEAIPEDVIQKWQNADLNGKFKLPTKNEFIPTNFEILALEKDATPYPALIKDTAMSKLWFKQDDKFFLPKACLNFEFFSPFAYVDPLHCNMAYLYLELLKDSLNEYAYAAELAGLSYDLQNTIYGMYLSVKGYNDKQPILLKKITEKMATFEIDKKRFEIIKEAYMRSLNNFRAEQPHQHAMYYLRLLMTEVAWTKDELKEALDDVTLPRLKAFIPQLLSRLHIEALLHGNITKQAALGVMQMVEDTLIEHAHTKPLLPSQLVRYREVQLPDRGWFVYQRRNEVHNNCGIEIYYQTDMQSTSENMFLELFCQIISEPCFNTLRTKEQLGYIVFSGPRRANGIQGLRFIIQSEKPPHYLESRVEAFLITMEKAIEDMTEEAFQKHIQALAIRRLDKPKKLSAECAKYWGEIISQQYNYDRDNIEVAYLKTLSKDDIIKFYKEMLAVDAPRRHKVSVHVLAREMDSCPVVGEFPSQNDINLSEAPPLPQPEVIHNMTEFKRGLPLFPLVKPHINFMAAKL
modifications: wild-type Insulin Degrading Enzyme (IDE) from rat
B5: V360S: Rat IDE distal site mutant V360S (protein, UniProt P35559 1-1019, looked up, variant V360S)
Insulin-degrading enzyme: B4 chain with V360S, S429R
B6: Y609F: Rat IDE distal site mutant Y609F (protein, UniProt P35559 1-1019, looked up, variant Y609F)
Insulin-degrading enzyme: B4 chain with S429R, Y609F
B7: I374S: Rat IDE distal site mutant I374S (protein, UniProt P35559 1-1019, looked up, variant I374S)
Insulin-degrading enzyme: B4 chain with I374S, S429R

Legend:
Abz-GGFLRKHGQ-EDDnp [1] = target: T1, Abz-GGFLRKHGQ-EDDnp
Abz-GGFLRKHGQ-EDDnp [2] = assay: Enzyme activity assay, kinetics of IDE and ATP binding site mutants with fluorogenic substrate; assay type: biochemical; conditions: Abz-GGFLRKHGQ-EDDnp as substrate
Procedure: Reactions were conducted in 50 mM Tris-HCl, pH 7.4.
(§1) IDE activity was determined by measuring the increase in fluorescence that occurs when the enzyme cleaves the internally quenched fluorogenic substrate Abz-[…]-EDDnp (SEQ ID NO:3) at the R—K bond (Song et al., Journal of Biologial Chemistry 276, 1152-1155 (2001)). The reaction was followed on a SpectraMax Gemini XS fluorescence plate reader using an excitation and emission wavelengths of 318 nm and 419 nm, respectively. Initial velocities were determined using SoftMax Pro 4.0 and kinetic constants calculated using GraphPad Prism 4.0. ATPase activity was measured by following Pi release with acid-molybdate as described by Harder et al. (Harder et al., Biochemical Journal 298 (Pt 2), 395-401 (1994)).

[3] = TNP-ATP fluorescence measurements, IDE and ATP binding site mutants; conditions: 1.5 μM enzyme, 10 μM TNP-ATP, λexc=403 nm
Procedure: Fluorescence emission spectra were recorded on a Perkin-Elmer LS 55 Luminescence spectrometer with 1.5 μM of IDE, IDE^R429S or IDE^K898A,K899A,S901A in 50 mM Tris-HCl, pH 7.4 with 10 μM TNP-ATP. Fluorescence spectra were recorded with a λexc=403 nm.
TNP-ATP [2′,3′-O-(2,4,6-Trinitrophenyl)adenosine-5′-triphosphate] fluorescence was monitored at excitation and emission wavelengths of 403 nm and 547 nm, respectively, using a Perkin-Elmer LS55 Luminescence Spectrometer at 20±0.1° C. TNP-ATP (Molecular Probes, Inc.) as supplied was diluted to 4 mM with 50 mM Tris-HCl, pH 7.4, and added to achieve the indicated concentrations.

Abz-GGFLRKHGQ-EDDnp [4] = assay: Activation by ATP of Abz-[…]-EDDnp hydrolysis, IDE and ATP binding site mutants; assay type: biochemical; conditions: 10 μM Abz-GGFLRKHGQ-EDDnp as substrate
Procedure: Activity was determined in 50 mM Tris-HCl, pH 7.4 with 10 μM Abz-[…]-EDDnp (SEQ ID NO:3) as substrate at the indicated concentrations of ATP (panel A), PPPi (panel B) or, TNP-ATP (panel C). Each reaction contained 0.5 μg of enzyme.
as §1

[5] = Fluorescence measurements of TNP-ATP binding, wild type rIDE and distal site mutants; conditions: hyperbolic one site binding fit, 20 °C
Procedure: The fluorescence increase on binding of (2,4,6-trinitrophenyl)ATP (TNP-ATP) is plotted for the indicated IDE constructs as a function of ligand concentration. Data were fit to a hyperbolic one site binding mechanism.
Fluorescence emission spectra of 10 μM TNP-ATP in […] Tris-HCl, pH7.4, was measured in the presence of 1.5 μM of each wild type IDE and the indicated IDE distal mutants. Fluorescence spectra were recorded with a λexc=403 nm on a Perkin-Elmer LS55 Luminescence Spectrometer.
Fluorescence measurements of TNP-ATP binding were performed on a Perkin-Elmer LS55 Luminescence Spectrometer. Titrations were monitored at an excitation wavelength of 403 nm and emission wavelength of 547 nm. The temperature of the sample was maintained at 20±0.1° C. by circulating thermostatically controlled water through the cuvette holder. Assays were conducted in 200 μL reaction mixtures containing 50 mM Tris-HCl, pH, 7.4, 10 μM Abz-[…]-EDDnp (SEQ ID NO:3) as substrate, and 0.5 μg wild type rIDE, 2.3 μg rIDE-V3605, 2.0 μg rIDE-I3745 or 1.62 μg rIDEY609F and the indicated concentration of ATP. The fluorescence of TNP-ATP was subtracted from the total fluorescence of enzyme+TNP-ATP to yield specific fluorescence enhancement (ΔF).

Abz-GGFLRKHGQ-EDDnp [6] = assay: Enzyme activity assay, kinetics of wild type rIDE and distal site mutants with fluorogenic substrate; assay type: biochemical; conditions: rat IDE, Abz-GGFLRKHGQ-EDDnp as substrate; for Vmax: 50 mM Tris-HCl, pH 7.4
Procedure: (§2) FIG. 17. Effects of distal site mutations. (A) Comparison of the kinetics of wild type IDE with the distal site mutants. Activity was measured with varying amounts of Abz-[…]-EDDnp (SEQ ID NO:3) substrate as indicated. Either hyperbolic (Michaelis-Menten equation) or sigmoidal curves (Hill equation) were fit to the data. (B) Effect of bradykinin on the activity of wild type IDE and the distal site mutants. (C) Activation of wild type IDE and distal site mutants by ATP. Relative activity is the fold activation above the level of the wild type enzyme alone.
(§3) The activity of IDE was measured by following the increase in fluorescence upon hydrolysis at the L-R bond of the fluorogenic peptide Abz-[…]-EDDnp (SEQ ID NO:3) on a SpectraMax Gemini XS fluorescence plate reader using an excitation wavelength of 318 nm and emission wavelength of 419 nm. Reactions were carried out in 200 μl volumes containing 50 mM Tris-HCl, pH 7.4, 1.92 μg of wild type rIDE, 4.6 μg of rIDE-V360S, 4.3 μg rIDE-I374S, or 1.63 μg of rIDE-Y609F. For measurements of activation by bradykinin, IDE activity was determined with 10 μM Abz-[…]-EDDnp (SEQ ID NO:3) as substrate in 50 mM Tris-HCl buffer, pH 7.4. The amount of protein was 0.5 μg for wild type rIDE and 5 μg for each of the IDE distal-site mutants. Data were analyzed using Softmax 4.0 (Molecular Devices) and kinetic parameters calculated with Prism (Graphpad Software). […] Under these assay conditions, both wild type and mutant rIDE are almost completely dimeric.

Abz-GGFLRKHGQ-EDDnp [7] = assay: Activation by ATP, wild type rIDE and distal site mutants; assay type: biochemical; conditions: 10 μM Abz-GGFLRKHGQ-EDDnp as substrate
Procedure: as §2, §3
Fluorescence measurements of TNP-ATP binding were performed on a Perkin-Elmer LS55 Luminescence Spectrometer. Titrations were monitored at an excitation wavelength of 403 nm and emission wavelength of 547 nm. The temperature of the sample was maintained at 20±0.1° C. by circulating thermostatically controlled water through the cuvette holder. […] The fluorescence of TNP-ATP was subtracted from the total fluorescence of enzyme+TNP-ATP to yield specific fluorescence enhancement (ΔF).

bradykinin, P01042, sequence (P01042 whole entry, looked up): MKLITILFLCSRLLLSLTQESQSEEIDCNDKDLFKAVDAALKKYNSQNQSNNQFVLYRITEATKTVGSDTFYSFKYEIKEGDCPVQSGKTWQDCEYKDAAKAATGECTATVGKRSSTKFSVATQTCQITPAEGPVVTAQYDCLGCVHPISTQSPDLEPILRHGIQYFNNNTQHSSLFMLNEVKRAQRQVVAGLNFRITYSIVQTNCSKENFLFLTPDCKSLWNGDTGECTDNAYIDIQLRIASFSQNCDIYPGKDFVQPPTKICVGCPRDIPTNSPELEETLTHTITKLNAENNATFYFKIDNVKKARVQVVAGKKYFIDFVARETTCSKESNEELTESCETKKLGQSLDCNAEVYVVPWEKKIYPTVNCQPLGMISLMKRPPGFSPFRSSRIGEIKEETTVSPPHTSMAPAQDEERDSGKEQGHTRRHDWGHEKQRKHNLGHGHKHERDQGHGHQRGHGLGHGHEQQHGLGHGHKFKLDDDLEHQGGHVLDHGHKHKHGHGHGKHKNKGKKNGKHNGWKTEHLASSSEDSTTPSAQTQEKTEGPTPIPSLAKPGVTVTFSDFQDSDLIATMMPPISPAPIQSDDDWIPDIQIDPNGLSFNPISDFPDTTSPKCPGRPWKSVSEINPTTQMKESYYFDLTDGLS

Molecule	Heterotropic activation of Abz-GGFLRKHGQ-EDDnp hydrolysis (bradykinin, P01042)	Hill coefficient (Abz-GGFLRKHGQ-EDDnp [1])	Km (Abz-GGFLRKHGQ-EDDnp [1])	Vmax (Abz-GGFLRKHGQ-EDDnp [1])	Kd [5]	Hill coefficient (Abz-GGFLRKHGQ-EDDnp [6])	Km (Abz-GGFLRKHGQ-EDDnp [6])	Vmax (Abz-GGFLRKHGQ-EDDnp [6])	ATP activation (Abz-GGFLRKHGQ-EDDnp [7])	other results
B1	is also lost in all three mutants	1.04	6.86 µM	2.6 nmol/min/mg	–	–	–	–	–	–
B2	is also lost in all three mutants	1.12	8.5 µM	3.45 nmol/min/mg	–	–	–	–	–	–
B3	is also lost in all three mutants	1.07	8.61 µM	2.01 nmol/min/mg	–	–	–	–	–	–
B4	–	–	–	–	–	–	–	–	–	kcat relative to wild-type IDE (Abz-GGFLRKHGQ-EDDnp [2]): essentially the same; Hill coefficient (Abz-GGFLRKHGQ-EDDnp [2]; rat IDE): 1.7 ± 0.2; Km (Abz-GGFLRKHGQ-EDDnp [2]; rat IDE): 21300 ± 2400 µM; kcat (Abz-GGFLRKHGQ-EDDnp [2]; rat IDE): 0.0783 ± 0.005 s⁻¹; Vmax (Abz-GGFLRKHGQ-EDDnp [2]; rat IDE, 50 mM Tris-HCl, pH 7.4): 42.3 ± 3.2 nmol/min/mg; fluorescence associated with TNP-ATP binding, relative to wild type IDE [3]: lower fluorescent yield; level of activation by ATP, of the wild type value (Abz-GGFLRKHGQ-EDDnp [4]): about 15%
B5	–	–	–	–	3700 ± 800 nM	1.07	8.61 ± 0.81 µM	2.01 ± 0.08 nmol/min/mg	8 fold	Hill coefficient (Abz-GGFLRKHGQ-EDDnp [6]; listed as Val360Ser): 1.07 ± 0.30
B6	–	–	–	–	2000 ± 300 nM	1.04	6.86 ± 1.18 µM	2.6 ± 0.56 nmol/min/mg	not significant	Hill coefficient (Abz-GGFLRKHGQ-EDDnp [6]; listed as Tyr609Phe): 1.04 ± 0.14
B7	–	–	–	–	2100 ± 500 nM	1.12	8.5 ± 1.74 µM	3.45 ± 0.22 nmol/min/mg	not significant	Hill coefficient (Abz-GGFLRKHGQ-EDDnp [6]; listed as Ile374Ser): 1.12 ± 0.2
